Results taken from the supplement of paper PMC10567573.
± gives the standard deviation.

Test: protein stability index of a GFP-peptide fusion (GPS, HEK-293T) (PSI 1-6); higher = more stable
[1] = treatment: DMSO, c terminus: a fixed tail appended
[2] = treatment: MLN4924 1 uM, 8 h, c terminus: a fixed tail appended
[3] = treatment: DMSO, c terminus: native
[4] = treatment: MLN4924 1 uM, 8 h, c terminus: native
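Also: 24-mer peptide tiles fused after GFP, lentivirally expressed, FACS-sorted into six equal bins by GFP/DsRed ratio, decoded by Illumina sequencing, PSI is the read-weighted mean bin number.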

| Sequence | protein stability index [1] | protein stability index [2] | protein stability index [3] | protein stability index [4] |
| --- | --- | --- | --- | --- |
| QLLLHNTVIFYGADSEQADIARML [ZMYND11] | 2.28 ± 0.089 | 2.3 ± 0.13 | – | – |
| QLQHDFPRALIFSTDDFFFREDGA [N4BP2L1] | 3.09 ± 0.24 | 3.08 ± 0.47 | – | – |
| QLRGQLQDLDSRLRAGSSEFDSEH [RASAL3] | 4.71 ± 0.41 | 4.9 ± 0.46 | – | – |
| QPMQNGEEDRPLGGGEGHQPAGNR [BEX3] | 5.42 ± 0.4 | 5.36 ± 0.35 | – | – |
| QPPVPSLSEVKPPPPPPPAQTFLF [TRADD] | 3.41 ± 0.49 | 3.44 ± 0.12 | – | – |
| QPRKKYVQRKSDFDQTVFQEVFEP [NETO1] | 4.14 ± 0.22 | 4.26 ± 0.2 | – | – |
| QPVPNTTEPDYKSKDWVFLNYTYK [STK38L] | 3.33 ± 0.63 | 3.14 ± 0.31 | – | – |
| QQPPQQQPSQQQQPPPQEEPGTPS [KLHL14] | 5.67 ± 0.13 | 5.61 ± 0.4 | – | – |
| QRDEQLRALQERLGQQQRDMRRDE [FBF1] | 5.39 ± 0.28 | 5.33 ± 0.31 | – | – |
| QREEVEERMWAAIQSWDINSRRNI [ZER1] | 3.75 ± 0.36 | 3.69 ± 0.29 | – | – |
| QSEESDQGKYECVATNSAGTRYSA [PTPRD] | 5.23 ± 0.33 | 5.23 ± 0.34 | – | – |
| QSLYQEVFGRLRDENGRPYSPSQY [NFE2L1] | 3.59 ± 0.31 | 3.4 ± 0.18 | – | – |
| QSSQRMRQNLKLLVEETSCQQNMI [CEP70] | 3.65 ± 0.16 | 3.66 ± 0.16 | – | – |
| QTLQAMDSEDFPQAAKQIKDGVTM [FSD1] | 4.97 ± 0.26 | 5.04 ± 0.083 | – | – |
| QVAFGSLYRDDVLIKPSRVVAILA [GMCL1] | 2.38 ± 0.62 | 2.46 ± 0.48 | – | – |
| QVLKKIAQKALDLPSSGEGLAFFT [HMOX1] | 2.57 ± 0.7 | 2.02 ± 0.41 | – | – |
| QVTAPGAPPLQAETPGSAVDYPLH [TNXB] | 4.45 ± 0.087 | 5.292 ± 0.007 | – | – |
| QYREAAGPHEAFNKLWELCCQWLK [ZNF449] | 2.93 ± 0.53 | 3.05 ± 1 | – | – |
| QYRWDMMHRLGEPQARMREENMER [BEX1] | 4.1 ± 0.37 | 4.23 ± 0.16 | – | – |
| RAALKLEPSNKTIHAELSKLVKKH [FKBP8] | 3.71 ± 0.19 | 3.85 ± 0.12 | – | – |
| RAASSQRAEEEDDDIKQLAAWAT [CHMP4C] | – | – | 5.34 ± 0.4 | 5.2 ± 0.2 |
| RAMHLMKKREKQREQMEQMKQRIA [FAM50A] | 3.27 ± 0.24 | 3.51 ± 0.14 | – | – |
| RAQKQCRKSSFAFYQAVRDLLPVW [ANKRD9] | 2.33 ± 0.49 | 1.98 ± 0.31 | – | – |

| Sequence | protein stability index [1] | protein stability index [2] | protein stability index [3] | protein stability index [4] |
| --- | --- | --- | --- | --- |
| RAQYDELARKNREELDKYWSQQIE [KRT18] | 3.43 ± 0.27 | 3.97 ± 0.85 | – | – |
| RAWIPSENIQDITVNIHRLHVKRS [ZMYND11] | 2.55 ± 0.31 | 2.49 ± 0.16 | – | – |
| RCGKFLQDGLPPTWRDFRTLEAFH [MED27] | 2.17 ± 0.33 | 2.12 ± 0.18 | – | – |
| RDKAKMRNLETQHKVLELTAENER [CEBPB] | 4.9 ± 0.2 | 5.24 ± 0.24 | – | – |
| RELRCKVFPIKHYQDKIRPYIQLP [TRIB1] | 2.15 ± 0.42 | 2.32 ± 0.1 | – | – |
| RERMELLEEAKKMEMAKFRYILPV [RIPK4] | 2.48 ± 0.22 | 2.84 ± 0.4 | – | – |
| RFRFPSPILKVQYHPRDQNKVLVC [RBBP5] | 2.32 ± 0.11 | 2.32 ± 0.21 | – | – |
| RFRRFRFQEAAGPREALSRLQELC [ZNF263] | 2.6 ± 0.48 | 2.58 ± 0.45 | – | – |
| RFSHMSERDLQELSIQVEEERRAR [ZMAT5] | 5.51 ± 0.56 | 4.97 ± 0.87 | – | – |
| RGRTQLFSLNPRSGSLITAGRIDR [PCDHGA10] | 3.29 ± 0.13 | 3.31 ± 0.34 | – | – |
| RHRQEVLCKEMVPLAEQTPLTLQS [ZSCAN9] | 4.31 ± 0.18 | 4.21 ± 0.077 | – | – |
| RHWCMKHDELLAEHIKSLLIKNNS [INTS3] | 2.29 ± 0.12 | 2.38 ± 0.33 | – | – |
| RKEAYGKPVDIWACGVILYILLVG [CAMK2B] | 2.95 ± 0.76 | 2.73 ± 0.7 | – | – |
| RKLLESEECRMSGEFPSPVSISII [KRT71] | 2.42 ± 0.42 | 2.19 ± 0.19 | – | – |
| RKQLQPTHCKYEGPRKARRLWFA | – | – | 2.85 ± 0.39 | 3.04 ± 0.13 |
| RKRMGTRRGRHEQSPTSRPRKVSS [C22orf15] | 4.7 ± 0.25 | 4.59 ± 0.13 | – | – |
| RLEREERNQTQVLRQQQDEAYLAS [FAF2] | 4.96 ± 0.21 | 5 ± 0.15 | – | – |
| RLGELFNPYYDPLQWKSSHFERRD [CHGB] | 2.45 ± 0.28 | 2.64 ± 0.24 | – | – |
| RLLLAGAEVQAKLENAEVLELTVR [HES6] | 2.37 ± 0.38 | 2.63 ± 0.49 | – | – |
| RLMRDMAQLRLQLEVSQLEGSLQQ [SMG5] | 2.39 ± 0.43 | 2.6 ± 0.3 | – | – |
| RLNYDRKELEKRREESQHEIKDVL [PPFIA4] | 3.65 ± 0.42 | 4.76 ± 0.3 | – | – |
| RLRGLLRVLRGRPGAGSRRRGRMA [FBXO33] | 2.6 ± 0.61 | 3.14 ± 0.69 | – | – |
| RLSVELTSSLFRTEPMAWNETADL [CTNNB1] | 2.83 ± 0.2 | 3.03 ± 0.31 | – | – |

| Sequence | protein stability index [1] | protein stability index [2] | protein stability index [3] | protein stability index [4] |
| --- | --- | --- | --- | --- |
| RLVDAVLGAEIRNGMAIIRPPGHH [HDAC6] | 1.96 ± 0.17 | 2.02 ± 0.35 | – | – |
| RMSYGGSTCHAYSNTRDRYGRSWE [RBMY1A1] | 2.62 ± 0.21 | 2.46 ± 0.099 | – | – |
| RNERSIQEKLQVLMAEGLLPAVKV [SMG5] | 2.69 ± 0.26 | 2.6 ± 0.22 | – | – |
| RNSGPVVEKLKQMQEFFGLKVTGK [MMP1] | 3.16 ± 0.079 | 3.14 ± 0.39 | – | – |
| RNSTPPSLARNPAPGVLTNKRKTY [ZC2HC1A] | 4.86 ± 0.21 | 4.68 ± 0.17 | – | – |
| RPDTGDDAAGHGFCYCAGSHKRKR [GMCL1] | 3.81 ± 0.74 | 4.47 ± 0.55 | – | – |
| RQPAFDTFDGSLFAVFPSLNEEQT [ETS2] | 3.89 ± 0.2 | 4.04 ± 0.31 | – | – |
| RQSLEGLSVRSVFFGVFQSFVVLL [CLPTM1] | 2.04 ± 0.14 | 1.99 ± 0.25 | – | – |
| RQSRRQSVSRFFADSGADPKGEPG [FBF1] | 5.04 ± 0.12 | 5.11 ± 0.17 | – | – |
| RRILDELTLCKSDLESQVESLREE [KRT34] | 4.82 ± 0.14 | 4.75 ± 0.18 | – | – |
| RRVPPRFSIPPTNHEIMPGGSVNI [PTPRD] | 3.38 ± 0.22 | 3.39 ± 0.22 | – | – |
| RSHLIGHQRTHSEEETYKCLECGK [ZNF449] | 4.26 ± 0.16 | 4.39 ± 0.26 | – | – |
| RSLLPSTEYQKQLLAAQVQLQCSP [FBF1] | 3.46 ± 0.41 | 3.73 ± 0.18 | – | – |
| RTDSREQKLDAFLQPLSKPLSSQP [MLH1] | 4.32 ± 0.082 | 4.44 ± 0.14 | – | – |
| RTDVGITHQHWQQFEPQLTLWDVF [RSAD1] | 2.25 ± 0.4 | 2.38 ± 0.39 | – | – |
| RTSKSRGFAFITFENPADAKNAAK [RBMY1A1] | 3.26 ± 0.28 | 3.46 ± 0.43 | – | – |
| RVEDAFYTLVREIRQYRLKKISKE [KRAS] | 2.3 ± 0.17 | – | – | – |
| RVQSVDFMRTDPVCQKLLLDAMNY [KLHL14] | 2.74 ± 0.2 | 2.64 ± 0.22 | – | – |
| RVQVQVVERAQQVAVQEQEIARRE [FLOT1] | 5 ± 0.43 | 4.76 ± 0.67 | – | – |
| RWLMVKIFLILIVFFIIFVVFLA [STX5] | – | – | 4.3 ± 0.23 | 4.31 ± 0.33 |
| RYFPAGNVVNEGFFEENVLPPKK [GLIPR2] | – | – | 4.72 ± 0.066 | 4.59 ± 0.38 |
| RYHFATGVWHQMGTDGYMPRELAS [KLHDC10] | 2.6 ± 0.2 | 2.41 ± 0.24 | – | – |
| RYILPVYGICREPVGLVMEYMETG [RIPK4] | 2.12 ± 0.62 | 2.69 ± 0.55 | – | – |

| Sequence | protein stability index [1] | protein stability index [2] | protein stability index [3] | protein stability index [4] |
| --- | --- | --- | --- | --- |
| RYLTFFHNYNILIATLRVALPSVM [MCOLN1] | 3.31 ± 0.65 | 3.05 ± 0.54 | – | – |
| RYPELDTPKLDCFLSGMEAAPRTL [TBX6] | 3.5 ± 0.27 | 3.58 ± 0.2 | – | – |
| SAENIPGCSSSGSCSQGSGILHYA [CRY1] | 2.9 ± 0.33 | 2.93 ± 0.2 | – | – |
| SAEYVGHLRATEKMKTRELHRESS [HDAC6] | 4.62 ± 0.36 | 4.47 ± 0.4 | – | – |
| SARDASPTPSTDAEYPANGSGADR [NCK2] | 5.51 ± 0.17 | 5.53 ± 0.25 | – | – |
| SARYVLPDEAARARLLQEGGGGVA [DUSP5] | 4.33 ± 0.19 | 4.13 ± 0.17 | – | – |
| SDFEWLKNELERDSKIVVPPLPGK [SNX12] | 4.07 ± 0.32 | 4.13 ± 0.14 | – | – |
| SDFKTDKEGGQAGSGQRVPALEEA [ELOA2] | 5.61 ± 0.18 | 5.49 ± 0.22 | – | – |
| SDLNEVPVKELAALPKATILDLSC [LRRC59] | 3.96 ± 0.052 | 4.01 ± 0.3 | – | – |
| SDSMHIEDVEAVQKLQDVLHEALQ [ESRRG] | 3.42 ± 0.29 | 3.54 ± 0.16 | – | – |
| SDYPSPDISPPIFRRGEKLRVISD [SLA] | 3.88 ± 0.3 | 4.2 ± 0.25 | – | – |
| SELIVHIFSFLPAPDRLRASASCS [FBXO33] | 2.76 ± 0.14 | 1.94 ± 0.35 | – | – |
| SEMECQNQEYKMLLDIKTRLEQEI [KRT13] | 3.72 ± 0.26 | 3.82 ± 0.32 | – | – |
| SENLEEETENIIAANHWVLPAAEF [TRIP13] | 4.8 ± 0.26 | 4.61 ± 0.17 | – | – |
| SFQIVLDPMLDFYSDKNAKLTKES [TENT5D] | 2.91 ± 0.43 | 3.09 ± 0.37 | – | – |
| SGHALRILIVDWDVHHGNGTQHMF [HDAC6] | 2.74 ± 0.44 | 3.02 ± 0.75 | – | – |
| SGKWTFQRDSKRWSRLEEFDVFSP [DLC1] | 2.46 ± 0.28 | 2.53 ± 0.34 | – | – |
| SGLLEELNAEAGHLDPGFLASDKT [C18orf25] | 4.96 ± 0.18 | 4.76 ± 0.12 | – | – |
| SHGANVNHTTVTNSTPLRAACFDG [FEM1B] | 4.02 ± 0.14 | 4.25 ± 0.086 | – | – |
| SILKAMGKTKKDYQEASNLEQFVT [NECAB1] | 2.89 ± 0.41 | 3.04 ± 0.33 | – | – |
